{"source": "patent US20260242478A1", "about": "(published 2026)", "key": {"[1]": {"biological_target": "T1, Anti-CD28 Fab (SEQ ID NOs: 696, 697)", "T1 construct": "In the phage ELISA the Fab was biotinylated and captured on neutravidin coated plates", "T1 sequence (VH, as listed by the source, chain 1 of 2)": "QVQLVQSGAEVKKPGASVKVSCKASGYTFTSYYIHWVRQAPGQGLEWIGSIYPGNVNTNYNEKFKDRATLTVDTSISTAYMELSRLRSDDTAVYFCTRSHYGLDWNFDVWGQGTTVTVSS", "T1 sequence (VL, as listed by the source, chain 2 of 2)": "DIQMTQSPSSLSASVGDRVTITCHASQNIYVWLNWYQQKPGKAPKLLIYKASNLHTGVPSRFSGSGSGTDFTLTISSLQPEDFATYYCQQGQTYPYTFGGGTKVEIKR", "assay": "phage binding ELISA on plate-captured Fab, competitor CD28 antigen", "description": "(§1) After panning, phage infected bacteria were plated out and colonies picked into 96 well blocks. Clonal phage was then amplified and separated from bacterial cells via centrifugation.\n(§2) Clonal phage were harvested as crude supematants and screened via standard ELISAs. […] Prior to the addition of clonal phage, wells were incubated with blocking buffer and CD28 antigen or blocking buffer alone. Without washing or aspirating, clonal phage supematants were then added to the wells and incubated for a short time. Wells were then washed followed by detection of bound phage using a horse radish conjugated anti-M13 antibody. Clonal phage of interest were then sent for sequence analysis."}, "[2]": {"biological_target": "T1, Anti-CD28 Fab (SEQ ID NOs: 696, 697)", "assay": "phage binding ELISA, biotinylated Fab on neutravidin plate, anti-M13 HRP detection;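 further: crude clonal phage supernatants added to Fab-coated wells pretreated with CD28 antigen or with blocking buffer only, bound phage measured after washing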", "description": "as §1, §2"}, "[3]": {"biological_target": "T2, anti-CD28 scFv (VH - linker 1 - VL) (biotinylated (site not given))", "T2 construct": "Biotinylated scFv captured on neutravidin coated plates in the panning ELISA", "T2 sequence (scFv, as listed by the source)": "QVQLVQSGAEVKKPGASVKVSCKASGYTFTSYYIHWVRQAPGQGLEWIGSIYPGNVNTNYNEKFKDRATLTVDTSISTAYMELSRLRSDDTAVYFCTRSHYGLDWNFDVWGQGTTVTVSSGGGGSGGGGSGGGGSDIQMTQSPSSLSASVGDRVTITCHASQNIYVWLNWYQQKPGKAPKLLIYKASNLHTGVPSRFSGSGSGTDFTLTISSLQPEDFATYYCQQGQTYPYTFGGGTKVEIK", "assay": "phage ELISA as above; wells pre-incubated with soluble CD28 as competitor;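 further: crude clonal phage supernatants tested, with bound phage detected by HRP-conjugated anti-M13 antibody, and reference wells given blocking buffer without CD28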"}, "[4]": {"biological_target": "T2, anti-CD28 scFv (VH - linker 1 - VL)", "assay": "phage ELISA; biotinylated anti-CD28 scFv on neutravidin plate, clonal phage supernatant, anti-M13 HRP", "description": "Clonal phage were harvested as crude supernatants and screened via standard enzyme linked immunosorbent assays (ELISAs). […] Prior to the addition of clonal phage, wells were incubated with blocking buffer and CD28 soluble protein or blocking buffer alone. Without washing or aspirating, clonal phage supernatants were then added to the wells and incubated for a short time. Wells were then washed followed by detection of bound phage using a horse radish peroxidase conjugated anti-M13 antibody."}, "[5]": {"biological_target": "anti-CD28 Fab", "sequence (VH, as listed by the source, chain 1 of 2)": "as the sequence (VH, as listed by the source, chain 1 of 2) above", "sequence (VL, as listed by the source, chain 2 of 2)": "as the sequence (VL, as listed by the source, chain 2 of 2) above", "assay": "BLI (Octet): biotinylated peptide on streptavidin sensor, anti-CD28 Fab titrated in solution, 1:1 model"}}, "note": "Where no end group is shown, it is not given here."}
{"binder": "YWSCFQIPFTCFYF (Clonal phage supernatant; not shown: bacteriophage pIII to which the peptide is fused for display)", "note": "[Phage-454]", "values": [{"measurement": "Anti-CD28 Fab signal in the presence of CD28", "setting": "[1]", "value": 0.27}, {"measurement": "Anti-CD28 Fab (SEQ ID NOs: 696, 697) signal", "setting": "[2]", "value": 1.44}]}
{"binder": "WCWDYREWVPMTCP (cysteine pairing not given here; also: displayed on phage, fused to pIII, Clonal phage supernatant; not shown: bacteriophage pIII to which the peptide is fused for display)", "note": "[Phage-461]", "values": [{"measurement": "Anti-CD28 Fab signal in the presence of CD28", "setting": "[1]", "value": 0.08}, {"measurement": "Anti-CD28 Fab (SEQ ID NOs: 696, 697) signal", "setting": "[2]", "value": 2.3}]}
{"binder": "WCWYYREWVPMTCP (cysteine pairing not given here; also: displayed on phage, fused to pIII, Clonal phage supernatant; not shown: bacteriophage pIII to which the peptide is fused for display)", "note": "[Phage-467]", "values": [{"measurement": "Anti-CD28 Fab signal in the presence of CD28", "setting": "[1]", "value": 0.07}, {"measurement": "Anti-CD28 Fab (SEQ ID NOs: 696, 697) signal", "setting": "[2]", "value": 1.85}]}
{"binder": "YCAGHSPINIGKCL (cysteine pairing not given here; also: displayed on phage, fused to pIII, Clonal phage supernatant; not shown: bacteriophage pIII to which the peptide is fused for display)", "note": "[Phage-463]", "values": [{"measurement": "Anti-CD28 Fab signal in the presence of CD28", "setting": "[1]", "value": 0.06}, {"measurement": "Anti-CD28 Fab (SEQ ID NOs: 696, 697) signal", "setting": "[2]", "value": 1.49}]}
{"binder": "MDWCPRFLWSECFN (cysteine pairing not given here; also: displayed on phage as fusion to pIII, linker not given here, also called position columns give F at position 7))", "note": "[Phage-95]", "values": [{"measurement": "CD28 scFv signal in presence of CD28", "setting": "[3]", "value": 0.227}, {"measurement": "CD28 scFv signal", "setting": "[4]", "value": 2.57}]}
{"binder": "WECLKYTEANACTY (Clonal phage supernatant; not shown: bacteriophage pIII to which the peptide is fused for display)", "note": "[Phage-455]", "values": [{"measurement": "Anti-CD28 Fab signal in the presence of CD28", "setting": "[1]", "value": 0.07}, {"measurement": "Anti-CD28 Fab (SEQ ID NOs: 696, 697) signal", "setting": "[2]", "value": 1.55}]}
{"binder": "GCQYPWAFDAMSCP (cysteine pairing not given here; also: displayed on phage, fused to pIII, Clonal phage supernatant; not shown: bacteriophage pIII to which the peptide is fused for display)", "note": "[Phage-459]", "values": [{"measurement": "Anti-CD28 Fab signal in the presence of CD28", "setting": "[1]", "value": 0.07}, {"measurement": "Anti-CD28 Fab (SEQ ID NOs: 696, 697) signal", "setting": "[2]", "value": 2.38}]}
{"binder": "YCEGHLPEYREKCL (not fully specified; cysteine pairing not given here; also: biotinylated, site not given here)", "note": "[Peptide-126]", "values": [{"measurement": "t1/2", "setting": "[5]", "value": 36, "unit": "s"}]}
{"binder": "PDCQTILFKPWCVR (cysteine pairing not given here; also: displayed on phage, fused to pIII, Clonal phage supernatant; not shown: bacteriophage pIII to which the peptide is fused for display)", "note": "[Phage-457]", "values": [{"measurement": "Anti-CD28 Fab signal in the presence of CD28", "setting": "[1]", "value": 0.06}, {"measurement": "Anti-CD28 Fab (SEQ ID NOs: 696, 697) signal", "setting": "[2]", "value": 2.09}]}
{"binder": "MDWCPKYLWDVCFN (cysteine pairing not given here; also: displayed on phage as fusion to pIII, linker not given here)", "note": "[Phage-98]", "values": [{"measurement": "CD28 scFv signal in presence of CD28", "setting": "[3]", "value": 0.422}, {"measurement": "CD28 scFv signal", "setting": "[4]", "value": 2.57}]}
{"binder": "MDWCPRTLWAYCFN (cysteine pairing not given here; also: displayed on phage as fusion to pIII, linker not given here)", "note": "[Phage-96]", "values": [{"measurement": "CD28 scFv signal in presence of CD28", "setting": "[3]", "value": 0.584}, {"measurement": "CD28 scFv signal", "setting": "[4]", "value": 2.57}]}
{"binder": "WCWDYKLWVPTQCP (cysteine pairing not given here; also: displayed on phage, fused to pIII, Clonal phage supernatant; not shown: bacteriophage pIII to which the peptide is fused for display)", "note": "[Phage-460]", "values": [{"measurement": "Anti-CD28 Fab signal in the presence of CD28", "setting": "[1]", "value": 0.14}, {"measurement": "Anti-CD28 Fab (SEQ ID NOs: 696, 697) signal", "setting": "[2]", "value": 2.27}]}
{"binder": "YCEGHLPEYLAKCL (not fully specified; cysteine pairing not given here; also: biotinylated, site not given here)", "note": "[Peptide-127]", "values": [{"measurement": "Kd", "setting": "[5]", "value": 44.7, "unit": "nM"}, {"measurement": "t1/2", "setting": "[5]", "value": 60, "unit": "s"}]}
{"binder": "MDWCPKDLWDYCFA (cysteine pairing not given here; also: displayed on phage as fusion to pIII, linker not given here)", "note": "[Phage-97]", "values": [{"measurement": "CD28 scFv signal in presence of CD28", "setting": "[3]", "value": 0.165}, {"measurement": "CD28 scFv signal", "setting": "[4]", "value": 2.57}]}
{"binder": "DCWWMFESYPGRCI (cysteine pairing not given here; also: displayed on phage, fused to pIII, Clonal phage supernatant; not shown: bacteriophage pIII to which the peptide is fused for display)", "note": "[Phage-465]", "values": [{"measurement": "Anti-CD28 Fab signal in the presence of CD28", "setting": "[1]", "value": 0.07}, {"measurement": "Anti-CD28 Fab (SEQ ID NOs: 696, 697) signal", "setting": "[2]", "value": 1.65}]}
{"binder": "WICDKSGSIMLCRA (Clonal phage supernatant; not shown: bacteriophage pIII to which the peptide is fused for display)", "note": "[Phage-470]", "values": [{"measurement": "Anti-CD28 Fab signal in the presence of CD28", "setting": "[1]", "value": 0.06}, {"measurement": "Anti-CD28 Fab (SEQ ID NOs: 696, 697) signal", "setting": "[2]", "value": 0.91}]}
{"binder": "MDWCPRDLWSLCFY (cysteine pairing not given here; also: displayed on phage as fusion to pIII, linker not given here)", "note": "[Phage-94]", "values": [{"measurement": "CD28 scFv signal in presence of CD28", "setting": "[3]", "value": 0.246}, {"measurement": "CD28 scFv signal", "setting": "[4]", "value": 2.57}]}
{"binder": "ACDTYFAGMINECF (cysteine pairing not given here; also: displayed on phage, fused to pIII, Clonal phage supernatant; not shown: bacteriophage pIII to which the peptide is fused for display)", "note": "[Phage-458]", "values": [{"measurement": "Anti-CD28 Fab signal in the presence of CD28", "setting": "[1]", "value": 0.1}, {"measurement": "Anti-CD28 Fab (SEQ ID NOs: 696, 697) signal", "setting": "[2]", "value": 0.92}]}
{"binder": "MDWCPRYLWTVCFS (cysteine pairing not given here; also: displayed on phage as fusion to pIII, linker not given here)", "note": "[Phage-93]", "values": [{"measurement": "CD28 scFv signal in presence of CD28", "setting": "[3]", "value": 0.372}, {"measurement": "CD28 scFv signal", "setting": "[4]", "value": 2.58}]}
{"binder": "MDWCPRYLWHECFN (cysteine pairing not given here; also: phage-displayed pIII fusion, pIII and linker not given here)", "note": "[Phage-115]", "values": [{"measurement": "CD28 scFv signal in presence of CD28", "setting": "[3]", "value": 0.421}, {"measurement": "CD28 scFv signal", "setting": "[4]", "value": 2.49}]}
{"binder": "MDWCPRYLWTECFN (cysteine pairing not given here; also: phage-displayed pIII fusion, pIII and linker not given here)", "note": "[Phage-100]", "values": [{"measurement": "CD28 scFv signal in presence of CD28", "setting": "[3]", "value": 0.549}, {"measurement": "CD28 scFv signal", "setting": "[4]", "value": 2.56}]}
{"binder": "MDWCPRYLWDECFN (cysteine pairing not given here; also: phage-displayed pIII fusion, pIII and linker not given here)", "note": "[Phage-110]", "values": [{"measurement": "CD28 scFv signal in presence of CD28", "setting": "[3]", "value": 0.283}, {"measurement": "CD28 scFv signal", "setting": "[4]", "value": 2.53}]}
{"binder": "YWYCSPSIVRCVLV (cysteine pairing not given here; also: displayed on phage, fused to pIII, Clonal phage supernatant; not shown: bacteriophage pIII to which the peptide is fused for display)", "note": "[Phage-468]", "values": [{"measurement": "Anti-CD28 Fab signal in the presence of CD28", "setting": "[1]", "value": 0.09}, {"measurement": "Anti-CD28 Fab (SEQ ID NOs: 696, 697) signal", "setting": "[2]", "value": 1.51}]}
{"binder": "YCAGHAWQYINKCL (cysteine pairing not given here; also: displayed on phage, fused to pIII, Clonal phage supernatant; not shown: bacteriophage pIII to which the peptide is fused for display)", "note": "[Phage-466]", "values": [{"measurement": "Anti-CD28 Fab signal in the presence of CD28", "setting": "[1]", "value": 0.07}, {"measurement": "Anti-CD28 Fab (SEQ ID NOs: 696, 697) signal", "setting": "[2]", "value": 0.64}]}
{"binder": "ECHWSMWAVGHACF (cysteine pairing not given here; also: displayed on phage, fused to pIII, Clonal phage supernatant; not shown: bacteriophage pIII to which the peptide is fused for display)", "note": "[Phage-462]", "values": [{"measurement": "Anti-CD28 Fab signal in the presence of CD28", "setting": "[1]", "value": 0.07}, {"measurement": "Anti-CD28 Fab (SEQ ID NOs: 696, 697) signal", "setting": "[2]", "value": 1.77}]}
{"binder": "MDWCPRYLWNMCFH (cysteine pairing not given here; also: displayed on phage as fusion to pIII, linker not given here)", "note": "[Phage-99]", "values": [{"measurement": "CD28 scFv signal in presence of CD28", "setting": "[3]", "value": 0.404}, {"measurement": "CD28 scFv signal", "setting": "[4]", "value": 2.56}]}
{"binder": "FMCLPQNPHPLCFK (Clonal phage supernatant; not shown: bacteriophage pIII to which the peptide is fused for display)", "note": "[Phage-456]", "values": [{"measurement": "Anti-CD28 Fab signal in the presence of CD28", "setting": "[1]", "value": 0.06}, {"measurement": "Anti-CD28 Fab (SEQ ID NOs: 696, 697) signal", "setting": "[2]", "value": 0.84}]}
{"binder": "WCWDYKLWVPMTCP (cysteine pairing not given here; also: displayed on phage, fused to pIII, Clonal phage supernatant; not shown: bacteriophage pIII to which the peptide is fused for display)", "note": "[Phage-464]", "values": [{"measurement": "Anti-CD28 Fab signal in the presence of CD28", "setting": "[1]", "value": 0.11}, {"measurement": "Anti-CD28 Fab (SEQ ID NOs: 696, 697) signal", "setting": "[2]", "value": 2.51}]}
{"binder": "YCEGHAPEYIAKCL (cysteine pairing not given here; also: biotinylated, site not given here)", "note": "[Peptide-121]", "values": [{"measurement": "Kd", "setting": "[5]", "value": 831, "unit": "nM"}, {"measurement": "koff", "setting": "[5]", "value": 0.028, "unit": "s⁻¹"}, {"measurement": "kon", "setting": "[5]", "value": 33700, "unit": "M⁻¹ s⁻¹"}, {"measurement": "t1/2", "setting": "[5]", "value": 24, "unit": "s"}]}
{"binder": "SCAAGASYAWPYCL (Clonal phage supernatant; not shown: bacteriophage pIII to which the peptide is fused for display)", "note": "[Phage-471]", "values": [{"measurement": "Anti-CD28 Fab signal in the presence of CD28", "setting": "[1]", "value": 0.05}, {"measurement": "Anti-CD28 Fab (SEQ ID NOs: 696, 697) signal", "setting": "[2]", "value": 1.49}]}
